Earlier results in PMC2854253.

Biological target: cTnI147-163 (Homo sapiens)
Assay: NMR titration

**Q.** With cNTnC 1-89 (from UniProt P63316) as the substance, how does the Kd read?
**A.** The Kd was 154 µM.
